Data as given in article PMC4300948 (Nanoscale, 2014).
Where no end group is shown, it is not given here.

Key:
[1] = target: FVIII free human von Willebrand factor (VWF) (human, UniProt P04275 764-2813)
[2] = target: physiologic human von Willebrand factor (VWF) (human, UniProt P04275 764-2813)

- binding result [1]: binds
- binding result [2]: binds
B1: VWF-binding peptide (VBP), FVIII-derived, decorated on liposomal nanoconstructs (peptide)
peptide: TRYLRIHPQSWVHQI
modifications: also: lipid-peptide bioconjugate, displayed on liposome surface
